Test results taken from patent publication US20240092891A1.
Where two headings read alike, the source gives them in different places.

Key:
Test in all cases: flow cytometry on human CLDN18.1-HEK293 cells, antibody at 100 µg/mL
[1] = target: human CLDN18.1 (human) (UniProt P56856)
[2] = target: human CLDN18.1 (human) (UniProt P56856); remark: listed apart in the source
[3] = target: human CLDN18.1 (human) (UniProt P56856); remark: listed apart in the source

human CLDN18.1 (human), sequence (P56856 whole entry): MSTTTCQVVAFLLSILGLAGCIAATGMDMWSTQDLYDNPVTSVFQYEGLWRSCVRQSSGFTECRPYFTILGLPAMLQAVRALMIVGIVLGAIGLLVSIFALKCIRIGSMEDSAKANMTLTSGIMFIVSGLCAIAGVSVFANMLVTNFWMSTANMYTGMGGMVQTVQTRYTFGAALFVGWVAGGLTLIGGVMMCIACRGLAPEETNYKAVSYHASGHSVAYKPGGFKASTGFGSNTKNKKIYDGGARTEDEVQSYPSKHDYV

positive rate of cell binding [1]: 0.049%
positive rate of cell binding [2]: 0.851%
positive rate of cell binding [3]: 0.067%
Substance: irrelevant control hIgG1 (antibody)
